US6034062

Legend:
[1] = molecular target: BMP-9 receptors expressed on HepG2 cells (ATCC HB8065)
[2] = molecular target: BMP-9 receptors expressed on HepG2 cells (ATCC HB8065); test: 125I-BMP-9 binding to HepG2 cells, high affinity sites
[3] = molecular target: plasma membrane preparation from adult rat lung; test: [125I]rhBMP-9 displacement profile on rat lung plasma membranes
[4] = molecular target: plasma membrane preparation from adult rat kidney; test: [125I]rhBMP-9 displacement profile on rat kidney plasma membranes
[5] = molecular target: BMP-9 receptors expressed on HepG2 cells (ATCC HB8065); test: 125I-BMP-9 binding to confluent HepG2 cells, displacement by unlabelled BMP-9, Scatchard analysis

3H-thymidine incorporation in HepG2 cells [1]: 5 fold | ED50 of 3H-thymidine incorporation in HepG2 cells [1]: 10 ng/mL | Kd [2]: 0.27 nM | Kd [3]: 0.6 nM | Kd [4]: 0.3 nM | Kd [5]: 0.3 nM
B1: recombinant human BMP-9 (CHO-derived, mature) (ligand)
chain: TRECSRSCPRTAPQRQVRAVTRRTRMAHVAAGSTLARRKRSAGAGSHCQKTSLRVNFEDIGWDSWIIAPKEYEAYECKGGCFFPLADDVTPTKHAIVQTLVHLKFPTKVG
modifications: 125I-iodinated as tracer; unlabelled BMP-9 used as the displacing ligand
